From a protein production outcome set (Wang et al. 2014)

Assay: label from the status in PepcDB records

Row | Sequence | protein production
1 | MRFPELEELKNRRTLKWTRFPEDVLPLWVAESDFGTCPQLKEAMADAVEREVFGYPPDATGLNDALTGFYERRYGFGPNPESVFAIPDVVRGLKLAIEHFTKPGSAIIVPLPAYPPFIELPKVTGRQAIYIDAHEYDLKEIEKAFADGAGSLLFCNPHNPLGTVFSEEYIRELTDIAAKYDARIIVDEIHAPLVYEGTHVVAAGVSENAANTCITITATSKAWNTAGLKCAQIFFSNEADVKAWKNLSDITRDGVSILGLIAAETVYNEGEEFLDESIQILKDNRDFAAAELEKLGVKVYAPDSTYLMWLDFAGTKIEEAPSKILREEGKVMLNDGAAFGGFTTCARLNFACSRETLEEGLRRIASVL | failed
2 | MRFPSLLALGLTLPLGAFAAGGDSTGGSTWTNPPKETQTTKECKGVKVWDDKKKRCVAPKNSGLDADTLYDAVRELAYAGRPADAQGVLAAMPDQSDDRVLTYWGFTHRKLGDLDRAAFYYQAAIAANPDNILARSYMGQGFVEAGKTDLAIAQWREITARGGEGSWAEVSLREAIRSGLTYSY | failed
3 | MRFSLFVHMERVSDQQTQKQLYDEMIELCQIADRGGMHAIWTGEHHAMNFTIAPNPFLNIADLANKTKHVRLGTGTVVAPFWHPIKLAGEAAMTDIISNGRLDIGIARGAYSFEYERMVPGMDAWSAGQRLREMIPAIKNLWKGDYEHNGEFWQFPKTTSAPQPLQQPNPPIWVAARDPNSHEFAVQNGCNVQVTPLHLGDEEVEKLMGHFNSACEKFQDIERPEIMLLRHTYVADSEEDAQVAANEMNVFYNYFGAWFKNEREINQGLIAPLSDEEIAAHPFYTPEAMRKNNVIGQAQEVIDRLKAYEAMGYDEYSFWIDTGMSFERKKASLERMINEVMPAFSESKVDRRHATISAVY | failed
4 | MRFVNPIPFVRDINRSKSFYRDRLGLKILEDFGSFVLFETGFAIHEGRSLEETIWRTSSDAQEAYGRRNMLLYFEHADVDAAFQDIAPHVELIHPLERQAWGQRVFRFYDPDGHAIEVGESLSQSGE | not failed
5 | MRGARKSMGRVSYLRLPHLSGDQLCFVAEDDLWLASLDGPGRAWRLTVDRTKAGPPRFSPDGRHIAYTSWRTLVPEVHLVPVDGGPGRQLTHWGGLDTRVCGWSPPDPDGTTAVLAVASHGEPFSHLTWAYKVTPDGDPGRKLPWGPVTDIQAADLDGERRTLLLTGTPPHEPAAWKRYRGGATGRLWLHGERLLPDLGGHLSAPMFVGGRIAFLSDHEGVGNLYSCAQDGTGLRRHTDHDAFYARNAASDGTRVVYQCAGDLWIVDDLAPGSAPRRLDVRLSGPRAGRRTHQVPAAQHVGGISVDETGRASAVVVRGSLYWLTHRDGPARTIADTPGVRVRLPEMLGESGRIAYVTDAEGEDAVEISYLPRATGGRAARRLASGRLGRVLELVSDPAGDRLAVASHDGRLLILDVAEPDTEVTLALEAVDAGYPPDAGDEDAAGTAARADSAPDAPAEDTDARDIAAGTGTGDIADADAAAGGTVTPGSPGTPATAGGQVTELIRSVNGPVRDLAFSPDGTWLTWSHPGIGRTLRQIKMARIDGPEGTLVVDVTNGRFEDENPVFTRDGRYLAFLSWRGFDPVYDVHTGDLSFPLGCRPYLVPLSSATPSPFALNPEGRPAAGGLDPLEDEPGEGGAVMVEVEGLESRVTPFPVTASKYSALEPVAGGGLVWLRWPISGALGETFANPADPSERPTLEHFNLAKAKKSELVDHLDWFRVSGDGSRLVVLDEGELRAVPASEVGDGDSTTWIDLRRILHEVDPAAEWRQAYDEAGRLIRAYFWDPGMCGIDWDAVLDQYRPLLERVASPDEFADLLREVLGELGTSHAYVVAARRNEGPAHYQRWQGLLGANLACRDGRWLVRRILPGDSSDSKARSPLAGTGIRDGAVLTHVDGRPVDPVLGPSPLLAGAGGTTVELTFAPAEGCQGPSRRVAVVPLVDERPLRYQDWVAKRREVVRELSGGRCGYLHIPDMGGSGWAQFNRDLRMEVSRPALIVDVRGNAGGHISELVIEKLTRTILGWDLTRDAQPVSYTSNAPRGPVVAVADEATSSDGDMITAAFKLLRLGPVVGQRTWGGVVGMTGRHRLGDGSVITVPMNAAWFDAYGWSVENYGVAPDVEALRTPLDWAEGRYPVLDEAVRLALELLETNPPATPPGYEAVPDRSRPPLPPRE | failed
6 | MRGKILIFLHAHLPYVHHPEYDHFLEERWLFEAITETYIPLLMMFDEIEDFRLTMSITPPLMEMLSSRDLQEKYERHMEKLIELANKEVERTKKEHPLKHKMAKFYREHFEKILNVFRSYDGNILEGFKKYQETGKLEIVTCNATHAFLPLYQMYPEVVNAQITVGVKNYAKHMTLHPRGIWLAECGYYQGLDLYLAQNNVEYFFVDSHAFWFADEQPRYGVYRPIMTPSGVFAFARDPESSEQVWSAAVGYPGDPRYREFYRDIGFDREMEYIKDYIDPSGVRINTGIKYHRITSKSLDASQKEYYDIDLAMEAVEEHARDFLHKKESQARRLMDIMGVEPVIVAPFDAELFGHWWFEGVFFLKRFFELVNESKDLKLVTASEVIDTLEEVQIATPADSSWGAGGYYETWLNGTNDWIYRHLHEMIERMIDLSKKYYNSSDPLVERVLNQMLRELFLAQSSDWAFIMTTRTSVQYAENRTKLHIKRFLNLYDQLVSGRIDEEMLRYYEWTDAIFPEINFRVMARDVI | not failed
7 | MRGLSLSPVVLPEVRREAGVELRKARLEDVDAIYWLIRYWAEKGLMLVRSHSHLYENIRDFWVLEDEDGQIVGTVALHVLWRDLAEIRGLAVHPTRQGQGLGRWLVLGAEREARDLGLPRVFAWTLQVNFFRALGYRVTSREALPPKVWSECNACPFYENCREIAVVKEFSPGASGG | failed
8 | MRGSVPSVREIETLLSQLPWRQFQSPRVHLEQYTTPVHLAARIAHHVALCIDEDERRSVQAVDLGTGTGILALALCLAGLNHVLGVDVDSEALELARANAAALWELCPQSVGAVLEFAAVDVQPNSLALAPKSFDVAVLNPPFGTRQRSADIAFLDVACHLSRRFVYSLHKSSTRSYLSRRLERFGCTAQVYARLRFDLPATYVFHRERAVDIDVDLWQIEVKR | not failed
9 | MRGYYDEISFDVNTTAKKMHLFLMRSIASYDVTPEQWSVLEGIEANEPISQKEIALWTKKDTPTVNRIVDVLLRKELIVREISTEDRRISLLSLTDKGRKETTELRDIVEASCEKMFAGVTRTDLEQFTAILKNISTNIE | not failed
10 | MRIAILGGGVAGSTLAYLLSRINYEVTIFDINQHYVKPCGDIVPNIYTPPFNWKETFGIRRFSFYIDGEKIYDVEYRHTKWLVIDKWKWINDMRKSSKVIVTHDNNAKEFDYVIDSRGPYPMDREVVYTTRAIIETEEFDDEAILEFNTRYTGFYWIFPSKENEYNIGAGFLEYKNSKELLNYYLRKRFKNFEVKDIRGAPISIGSVKNKKLRIGEARGLVFPLSGEGIRPSAISAEYAFEAIHKEKDLDGFLNEKLSIIEKRIKIQKMLLDLYRYSSLNLRKTFMRIFFKNEVLIDTYLEDKMDLNGIIESLKSVRANGGIIRKFEEQERLEHHHHHH | failed
11 | MRIDAHHHLWDLSVRDQPWTSDVPALRRTFTAAELRPALERNAIDATVVVQTIAVPQETPELLALTCTDPQVRAVVGWTDLTEPGIADRLAELREQPGGSALVGIRHGIQDETDPQWPARPEVRRGITSVAAAGLVYDLLVRPDQLPSAVRAVRELPDVRFVLDHAGNPVVSPDGLVSWTALLTDLAECPNVTVKLSGLVTRTGGDPAAALRPYADVLFETMGPDRLMYGSDWPVCLLAAEYDEVVAVAESLTEELSADEREAVFGTTAARWYGIPS | failed
12 | MRIETDRLVIRDFEERDAERLYDYLANPPVRCFLDEKINSYDEALRKIRERQGQSDQGDFYAVCLKNAEWLIGEVFWVKEEPDTYSIGWNFNLNYGGKGYATEAVKAAIEELFRGGARRIYAYVEEDNLPSQRLCDRLGMRREGLFLEFISFINNPDGSPRYENTYQYAILKREWLGEGKAT | failed
13 | MRIFKALLKMEFLLTKRQLANLIMAIGMPVAFFLFFSGFMGEGLTKAIEAIYVRNYMITMAGFSSLSFAFFTFPFSMKDDQLSNRMQLLRHSPVPMWQYYLAKIIRILFYYCLAITVVFLTGHILRQVSMPIEQWMQSFLLLLGGATCFIPFGLLVSYFKNTELMSMVANICYMSLAVLGGMWMPITMFPKWLQALSKLTPTYHLTQVILSPFANSFAGFSLIILIGYGIIMLVIAYLLSQKRHSI | failed
14 | MRIKLIIVEGKTDESFFKVLLEKLYGFREAKKLTPEFPIGKWGFRIGEHPLVLEKDNIALVIIHAEGKQRIPKVLKSVLDSVKLGLLNVEEVYVVRDVDEGNDVFEWVLSFLREREVRVDNGAIVTEGVKIYPYGMGNLTLNEPFVKEKKELELSLAYLAKLDGILEKYRGSMRALSQDKGDKLTPKDVMHILSIANDYTGDCLSGLYEKYIGIMIHRNRELLIRFLSEVNLLPLLERMVG | not failed
